± gives the standard deviation of the averaged measurements.

This is an account of results in the supplement of paper PMC10126150.
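Also: ATP exposure 15 min at 22 °C before imaging.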

This data set relates to ATP. In words: switch fluorescence ratio, 500 uM ATP over buffer (Cy3 cluster intensity, sum of 5 cycles each) (fold (ratio)); higher = stronger signal-on switching upon ATP binding; sequences stand for … in TCGTCGGCAGCGTCAGATGTGTATAAGAGACAGTTTTTTTTTTTTTTTTTTTTTTTTT…TC. As to conditions: aptamer strand: ATP DNA aptamer (quencher-CACCTGGGGGAGTATTGCGGAGGAAGG + anchor), 100 nM annealed; ATP concentration: 500 uM. The method in brief: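 Cy3-labelled switching-strand clusters on a modified Illumina MiSeq flow-cell were annealed to 100 nM quencher-labelled ATP aptamer and imaged first in selection buffer, then after 15 min with 500 uM ATP at 22 °C. NaOH stripping and re-annealing separated each of five buffer/ATP cycles, and clusters outside 100-1000 RFU were excluded. The fluorescence ratio sums target-cycle Cy3 intensity over buffer-cycle Cy3 intensity per cluster and averages it per switch-domain sequence.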
Consider CGGGTCGGGC, for which the switch fluorescence ratio amounted to 0.991 ± 0.013.

Take CTGGGGGAAT: the switch fluorescence ratio was determined as 1.01 ± 0.013.

For GATGGGCTAA, the switch fluorescence ratio was found to be 1.04 ± 0.022.

Regarding TTAGTGATAC, the switch fluorescence ratio amounted to 2.49 ± 0.42.

GGGGGGCAGA: the switch fluorescence ratio turned out to be 1 ± 0.029.

Consider CTGGAAAACG, for which the switch fluorescence ratio came to 1.008 ± 0.0046.

As for AAGTGGGGTC, the switch fluorescence ratio is 0.948 ± 0.037.

TAGTCCTATG: the switch fluorescence ratio worked out at 0.969 ± 0.021.

For the sequence TTCCGACTCT, the switch fluorescence ratio stood at 1.31 ± 0.014.

As to GCCGGGTTGC, the switch fluorescence ratio is 1.01 ± 0.013.

Regarding GAGTAGGACC, the switch fluorescence ratio came to 1.03 ± 0.016.

Consider GAGAGTTGGG, for which the switch fluorescence ratio is 0.985 ± 0.022.

Consider ATATAAGCGG, for which the switch fluorescence ratio was 1.02 ± 0.047.

For the sequence AAAGTTTACA, the switch fluorescence ratio worked out at 1.03 ± 0.014.

Take TATATTATGC: the switch fluorescence ratio came out at 1.02 ± 0.011.

Take TTGTCATGGG: the switch fluorescence ratio stood at 0.958 ± 0.011.

Take CCGAATATGA: the switch fluorescence ratio is 1.55 ± 0.079.

Take GGGTAGAGTT: the switch fluorescence ratio amounted to 0.9659 ± 0.0052.

CAGGGGTGGG: the switch fluorescence ratio was found to be 0.999 ± 0.058.

For GGAATGGCTT, the switch fluorescence ratio was 0.999 ± 0.0091.

For the sequence CGTATTCGTA, the switch fluorescence ratio stood at 0.978 ± 0.019.

As for TCGGGCAACG, the switch fluorescence ratio stood at 1 ± 0.041.

In the case of GGGAATACTA, the switch fluorescence ratio is 1.38 ± 0.37.

On to GAGCCTGGTT, for which the switch fluorescence ratio was found to be 0.967 ± 0.035.

On to TGAGTTGGGT, for which the switch fluorescence ratio worked out at 0.986 ± 0.019.

As for ATTTTTGTAG, the switch fluorescence ratio amounted to 1.01 ± 0.017.

In the case of TTGAGTCAAT, the switch fluorescence ratio is 1.044 ± 0.0078.

For the sequence AATCTGCCTG, the switch fluorescence ratio was found to be 0.99 ± 0.011.

In the case of GGCGCTGTGA, the switch fluorescence ratio stood at 1.01 ± 0.022.

In the case of CGGTGGGCTA, the switch fluorescence ratio is 1.013 ± 0.0052.

ATCGGAATTG: the switch fluorescence ratio amounted to 1.01 ± 0.015.

Take CTTCATAAGT: the switch fluorescence ratio stood at 0.983 ± 0.022.

CGTAATGTTA: the switch fluorescence ratio was found to be 1.01 ± 0.019.

As to TGGGGAGGAG, the switch fluorescence ratio amounted to 0.995 ± 0.017.

Consider ACCTGGTGGG, for which the switch fluorescence ratio amounted to 0.984 ± 0.028.

For the sequence TAACAGGTAG, the switch fluorescence ratio turned out to be 1.05 ± 0.035.

Turning to GTTGATTGGG, the switch fluorescence ratio stood at 0.994 ± 0.029.

In the case of ATATCGTATT, the switch fluorescence ratio worked out at 1 ± 0.013.

For AGGGACTTGG, the switch fluorescence ratio was determined as 1 ± 0.047.

On to GGTTTTGTGT, for which the switch fluorescence ratio stood at 0.962 ± 0.038.

As to CCTTGTATAA, the switch fluorescence ratio amounted to 1.07 ± 0.014.

Regarding GAATGGGGGC, the switch fluorescence ratio was found to be 0.98 ± 0.036.

Take TTCGAGTATT: the switch fluorescence ratio was found to be 0.99 ± 0.019.

As for GGAGGAAAGT, the switch fluorescence ratio came to 1 ± 0.029.

Regarding AGAACCACCG, the switch fluorescence ratio stood at 1.12 ± 0.032.

For the sequence GCTGGGGCGT, the switch fluorescence ratio was determined as 0.9851 ± 0.005.

With TTAGAAGGTG, the switch fluorescence ratio came out at 1.16 ± 0.078.

Take TATACTGGGG: the switch fluorescence ratio was determined as 1.03 ± 0.059.

As for GGGGATGAGC, the switch fluorescence ratio turned out to be 1.04 ± 0.037.

Consider ATTGGTGAGG, for which the switch fluorescence ratio was 0.988 ± 0.032.

For the sequence GCCGAGGGGA, the switch fluorescence ratio worked out at 1.05 ± 0.025.

For the sequence TGATTTGAAG, the switch fluorescence ratio is 0.9464 ± 0.007.

Turning to GATGTCTGTT, the switch fluorescence ratio was 0.955 ± 0.021.

For the sequence GTGTACTTAC, the switch fluorescence ratio amounted to 1.2 ± 0.022.

Regarding TTGTGGCGTT, the switch fluorescence ratio stood at 0.984 ± 0.0045.

For the sequence TAACAGGAAT, the switch fluorescence ratio turned out to be 0.966 ± 0.042.

As to TTCACCGGCA, the switch fluorescence ratio is 1.079 ± 0.0089.

On to ATTCTGATTG, for which the switch fluorescence ratio worked out at 1.02 ± 0.033.

For TTTTAAGTCT, the switch fluorescence ratio worked out at 1.02 ± 0.0036.

As for CGTTAAGGGT, the switch fluorescence ratio was found to be 0.98 ± 0.031.

For the sequence GAATTCTTGA, the switch fluorescence ratio came to 0.9532 ± 0.0043.

Take TTACTTTGGA: the switch fluorescence ratio amounted to 1.03 ± 0.023.

With TCGACTGTTT, the switch fluorescence ratio was 1.03 ± 0.018.

With GCTTGGGGTC, the switch fluorescence ratio came to 0.953 ± 0.011.

Regarding TTAGGATAGT, the switch fluorescence ratio is 0.998 ± 0.027.

Turning to GAAGATGTAG, the switch fluorescence ratio was 0.9558 ± 0.0033.

For the sequence AATATTTAGG, the switch fluorescence ratio stood at 0.987 ± 0.035.

As to TTTAAGAATC, the switch fluorescence ratio is 0.994 ± 0.03.

As to ATATGCGTCG, the switch fluorescence ratio is 0.95 ± 0.027.

On to CAATTTTGGA, for which the switch fluorescence ratio was 1.01 ± 0.028.

With TCTGCATGGT, the switch fluorescence ratio came to 1.07 ± 0.013.

Turning to CTGAGTGATG, the switch fluorescence ratio turned out to be 1.01 ± 0.02.

With GTTTGTGGCG, the switch fluorescence ratio worked out at 0.959 ± 0.024.

Regarding ACAGTGTGTG, the switch fluorescence ratio turned out to be 1.02 ± 0.027.

Turning to TGGACACTGC, the switch fluorescence ratio was 1.02 ± 0.011.

As for GGCGGTTAAG, the switch fluorescence ratio was 1.013 ± 7.9e-05.

On to TTAAGTTAGG, for which the switch fluorescence ratio worked out at 1.02 ± 0.012.

With GATGGAGGGG, the switch fluorescence ratio came to 0.9965 ± 0.0039.

As for CGTTATCGGA, the switch fluorescence ratio was found to be 1 ± 0.041.

On to GAATTGGGTA, for which the switch fluorescence ratio came to 0.957 ± 0.014.

On to AGGAGTTATG, for which the switch fluorescence ratio was determined as 1.015 ± 0.0046.

With CTTGAAAACT, the switch fluorescence ratio amounted to 1.04 ± 0.044.

For TTCGGGAGGT, the switch fluorescence ratio came out at 1.05 ± 0.13.

Turning to GACTGTGATG, the switch fluorescence ratio is 0.9708 ± 0.0097.

Turning to CATTCGGGGC, the switch fluorescence ratio came out at 1.11 ± 0.038.

Regarding CGAAATTTGG, the switch fluorescence ratio turned out to be 1.03 ± 0.044.

CGCGGTCAAC: the switch fluorescence ratio is 1.35 ± 0.2.

Regarding GGTTTCGGCA, the switch fluorescence ratio came to 1.01 ± 0.0045.

As to TGGTCTCTAA, the switch fluorescence ratio is 0.98 ± 0.01.

Take TTATATTTGA: the switch fluorescence ratio was 0.98 ± 0.015.

Regarding TGGGCCTCCA, the switch fluorescence ratio worked out at 1 ± 0.036.

As for CTTCGGACGG, the switch fluorescence ratio is 1.24 ± 0.036.

As for TTCGTATATT, the switch fluorescence ratio stood at 1.02 ± 0.017.

For the sequence TAAAATGGGT, the switch fluorescence ratio came out at 0.996 ± 0.03.

Take CGGTACCGGG: the switch fluorescence ratio was found to be 1.022 ± 0.0061.

In the case of TGAGCCTTAG, the switch fluorescence ratio came out at 1.09 ± 0.05.

In the case of CTAGGCTTTT, the switch fluorescence ratio was 1.02 ± 0.079.

As to GGGCAGTGGG, the switch fluorescence ratio is 1.05 ± 0.074.

Consider TCTGCCCCCC, for which the switch fluorescence ratio was 1.12 ± 0.042.

For the sequence AGATATGGTT, the switch fluorescence ratio was 0.994 ± 0.048.

For the sequence GCGGGGCAAG, the switch fluorescence ratio was 1.06 ± 0.11.

On to AAGCCATCCG, for which the switch fluorescence ratio came out at 1.07 ± 0.04.

With ATTAACGAGG, the switch fluorescence ratio was 1.04 ± 0.013.

In the case of TAGGAGCTTG, the switch fluorescence ratio came out at 1 ± 0.042.

As for TCTTAAAGAT, the switch fluorescence ratio was 1.06 ± 0.022.

In the case of GAAGGGGTCA, the switch fluorescence ratio was determined as 0.9904 ± 0.0089.

Turning to TGGGGGGCGT, the switch fluorescence ratio turned out to be 1.01 ± 0.043.

In the case of GAAGGAGTGG, the switch fluorescence ratio is 1.027 ± 0.01.

In the case of CAGGGCAAGG, the switch fluorescence ratio came to 1.12 ± 0.08.

Regarding TTAGACGGC, the switch fluorescence ratio was found to be 0.978 ± 0.097.

As to CATCGTCACG, the switch fluorescence ratio is 1.007 ± 0.0025.

On to GGGGACTTGG, for which the switch fluorescence ratio came out at 1 ± 0.027.

For AAACGATGTT, the switch fluorescence ratio is 1.02 ± 0.055.

As for TTGGGGAACG, the switch fluorescence ratio turned out to be 1.41 ± 0.62.

For the sequence GGTTTAAATT, the switch fluorescence ratio stood at 1 ± 0.018.

In the case of TTAAGCATGT, the switch fluorescence ratio amounted to 1.01 ± 0.017.

ATAAATTTTC: the switch fluorescence ratio was determined as 0.951 ± 0.043.

For GAGGAGCTAA, the switch fluorescence ratio was determined as 1.006 ± 0.0034.

Turning to GCTTGGGGCA, the switch fluorescence ratio is 0.967 ± 0.024.

Turning to AGAAAAAGGG, the switch fluorescence ratio worked out at 1.01 ± 0.037.
